Test results from article PMC7367391, “EtMIC3 and its receptors BAG1 and ENDOUL are essential for site-specific invasion of Eimeria tenella in chickens” (Veterinary Research, 2020).

T1: pGEX-6P-1-EtMIC3 recombinant protein (E. tenella, UniProt B6VCV4 1-988)
T1 sequence (looked up): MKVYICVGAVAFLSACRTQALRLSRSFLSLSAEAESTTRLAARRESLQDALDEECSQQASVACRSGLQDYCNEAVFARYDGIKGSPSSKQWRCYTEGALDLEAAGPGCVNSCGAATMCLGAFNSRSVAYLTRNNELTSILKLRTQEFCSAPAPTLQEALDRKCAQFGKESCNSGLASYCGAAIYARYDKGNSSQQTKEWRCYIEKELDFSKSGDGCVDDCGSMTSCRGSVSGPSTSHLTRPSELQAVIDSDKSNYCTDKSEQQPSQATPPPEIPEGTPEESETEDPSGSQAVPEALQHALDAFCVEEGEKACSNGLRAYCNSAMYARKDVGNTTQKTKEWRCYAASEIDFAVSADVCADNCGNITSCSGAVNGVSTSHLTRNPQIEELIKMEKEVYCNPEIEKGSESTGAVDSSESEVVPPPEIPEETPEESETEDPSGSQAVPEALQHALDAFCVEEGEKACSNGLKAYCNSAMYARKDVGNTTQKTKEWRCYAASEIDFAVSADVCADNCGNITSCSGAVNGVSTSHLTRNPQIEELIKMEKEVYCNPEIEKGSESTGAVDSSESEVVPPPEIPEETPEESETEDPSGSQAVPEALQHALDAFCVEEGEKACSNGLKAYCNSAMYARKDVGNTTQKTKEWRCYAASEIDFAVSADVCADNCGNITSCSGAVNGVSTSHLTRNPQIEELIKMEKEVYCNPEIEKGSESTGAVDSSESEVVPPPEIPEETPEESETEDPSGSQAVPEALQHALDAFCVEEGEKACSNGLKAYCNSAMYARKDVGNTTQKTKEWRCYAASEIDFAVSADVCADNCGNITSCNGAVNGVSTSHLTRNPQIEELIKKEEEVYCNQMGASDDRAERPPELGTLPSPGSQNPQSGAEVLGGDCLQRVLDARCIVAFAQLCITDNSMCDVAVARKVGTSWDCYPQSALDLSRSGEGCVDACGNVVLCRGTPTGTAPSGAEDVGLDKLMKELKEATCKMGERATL


Target: T1, pGEX-6P-1-EtMIC3 recombinant protein
Assay: cell-based or functional assay

Binder | oocyst decrease ratio (%) in chickens challenged with 5 × 10^4 E. tenella sporulated oocysts and injected intravenously with anti-BAG1 serum every day for 7 days | oocyst decrease ratio (%) in chickens challenged with 5 × 10^4 E. tenella sporulated oocysts and injected intravenously with anti-ENDOUL serum every day for 7 days
recombinant BAG1 expressed from pET-32a-BAG1 (natural protein, chicken, UniProt F1NPL0 1-209, looked up) MAVPGAPVSVTVTYSNEKHNIQVASQQEDGEPTLQDMAVLIEQVTGVPVSFQKLIYKGKSLKELEQPLSALGVKNGCKVMLIGKRNSPEEEAELKKLKDLEKSVEQIANKLEEVNKEFTSIQKGFLAKDLQAEALKQLDKRIKGTAEQFMKILEQVDAINLPENFNDCRLKKKGLVKRVQAFLAQCDTVEGNIGQEMDKLQSKNLALAE | 3.63% | 
recombinant ENDOUL expressed from pET-32a-ENDOUL (natural protein, chicken, UniProt A0A8V0YKR0 1-289, looked up) MADRKALNHELSKLFNEMWDMDVNRFTPGKDYAIELQGKADAVLQGDSVVQDSAARHLFHYVNEERLKNIKTFATFISLLDNYETSTGVEEIVTPEEIAENNCFLDAILMTGVMKLAHEYLLKKKLAKPNLADFKYQLYDIWFQLYPRKEGDRPDSCGFEHVFVGETRRGKQILGLHNWVQFYLQEKHKQIDYKGYIARKNKTRPDRDDQVLSIQFSWKGSVKPIGSTFIGVSPEFEFALYTVIFLLSEERVTRKTVKIEEYELQIVVCRHGRHIGTAYPVLLNTSNED |  | 5.07%
